The nature of the data set: soluble on expression in E. coli; label from the status in PepcDB or PDB records.
On to “FLILLRKTLEQLQEKDTGNIFSEPVPLSEVPDYLDHIKKPMDFFTMKQNLEAYRYLNFDDFEEDFNLIVSNCLKYNAKDTIFYRAAVRLREQGGAVLRQARRQAEKMG”, for which the “soluble on expression in E. coli” value is given as “soluble”.
On to “FLNNKHREKGLKAEEEACGFLKSLGFEMVERNFFSQFGEIDIIALKKGVLHFIEVKSGENFDPIYAITPSKLKKMIKTIRCYLSQKDPN”, for which the “soluble on expression in E. coli” value was “not soluble”.
In the case of “FLSTRDNVDELRKIENKSSFVSADNMPEYVKGAFISMEDERFYNHHGFDLKGTTRALFSTISDRDVQGGSTITQQVVKNYFYDNDRSFTRKVKELFVAHRVEKQYNKNEILSFYLNNIYFGDNQYTLEGAANHYFGTTVNKNSTTMSHITVLQSAILASKVNAPSVYNINN”, the “soluble on expression in E. coli” value is reported as “not soluble”.
Take “FNCLGMSNRDFLEGVSGATWVDLVLEGDSCVTIMSKDKPTIDVKMMNMEAANLAEVRSYCYLATVSDLSTKAACPTMGEAHNDKRADPAFVCRQGVVDRGWGNGCGLFGKGSIDTCAKFACSTKAIGRTILKENIKYEVAIFVHGPTTVESHGNYSTQVGATQAGRFSITPAAPSYTLKLGEYGEVTVDCEPRSGIDTNAYYVMTVGTKTFLVHREWFMDLNLPWSSAGSTVWRNRETLMEFEEPHATKQSVIALGSQEGALHQALAGAIPVEFSSNTVKLTSGHLKCRVKMEKLQLKGTTYGVCSKAFKFLGTPADTGHGTVVLELQYTGTDGPCKVPISSVASLNDLTPVGRLVTVNPFVSVATANAKVLIELEPPFGDSYIVVGRGEQQINHHWHKSGS”: the “soluble on expression in E. coli” value was “soluble”.
Turning to “FPEKVKSLTLIDSFGFICAPEEQMTDQLRRGLLSRMKSANTTRSFTEETAVKARLHVSDLTVEHAKLIVKRSLIEIEPKSMDTVGVDSASILYRWRSDPRLRSVSPYRLSLKQGQQLFSDIKCPLQLIYGDKGMKMVVTGLKNFSSGVNSLQTTKLSGGHHVHMEKAEELLPILHHFFSEI”, the “soluble on expression in E. coli” value is given as “not soluble”.
Regarding “FPSKSKMFEALIERIEQTLTSYINASKRKENSTALAVKAILYTVIEFARKNPGVTRILTGHALMFENSELKLRVAKFFDGLELQFVNILQMRKLREGKAFQDERALAGYLVTFCEGQFLRLVRSNFSSNPHQHFEKQWSLIKPLFE”, the “soluble on expression in E. coli” value is recorded as “not soluble”.
With “FSRAIDEHFVELDHMAMSAKLAVFRDELRGLGSEQQMRRREAELLRELARHPDLGLRLNGPDGNLWFERLPQPAHPGLPANRELGAPLEPGNDASPRLTVILDISHHQHFLQRMRQL”, the “soluble on expression in E. coli” value is on record as “not soluble”.
Regarding “FVVAFLCNWCSYACADLTGMSRIHYPTNIRVIRTMCSARINPEFVLEALKGGADGVLVAGCRMDECHYIHGNFDAKKRMDVLKEIIKEIGLDPKRLRTLWISAAEGERFSNTITEFVKELEEIGPIGSELKREYTATGLEEVAK”, the “soluble on expression in E. coli” value is recorded as “not soluble”.
Next, “GAAAAMSICPHIQQVFQNEKSKDGVLKTCNAARYILNHSVPKEKFLNTMKCGTCHEINSGATFMCLQCGFCGCWNHSHFLSHSKQIGHIFGINSNNGLLFCFKCEDYIGNIDLINDAILAKYWDDVCTKTMVPSMERRDGLSGLINMGSTCFMSSILQCLIHNPYFIRHSMSQIHSNNCKVRSPDKCFSCALDKIVHELYGALNTKQASSSSTSTNRQTGFIYLLTCAWKINQNLAGYSQQDAHEFWQFIINQIHQSYVLDLPNAKEVSRANNKQCECIVHTVFEGSLESSIVCPGCQNNSKTTIDPFLDLSLDIKDKKKLYECLDSFHKKEQLKDFNYHCGECNSTQDAIKQLGIHKLPSVLVLQLKRFEHLLNGSNRKLDDFIEFPTYLNMKNYCSTKEKDKHSENGKVPDIIYELIGIVSHKGTVNEGHYIAFCKISGGQWFKFNDSMVSSISQEEVLKEQAYLLFYTIRQVN”: “soluble”; “GAADPVVVPANMEPLTIEGNRFVTLCIMIRTTPWEVSRDVKLHPRDEVDWHTLEGVRALREAFATNNPNGRLTWGFTMNALEDGRKNYREIRDYVVECQKKYGDEVTYFPGYFPAMYLPRERVNREMSEAIEIISKMVGNGYRPQSIMGGFLSADNLRYLAEKENIHVAHAVIWSQHNIDGGGADGSPSYPFYPSTEHFCKPAQGKSDFIDCVNLDGWTMDFICARRSGQTGHGIDGYNSRRGVGPIETYKGWGLDLGHREVMHTEAIHFDKGLELNGFGWVANIWEAQMVHEFGKDLICDAMKMWVTGTKERWPDTHFVTFGEFGELWRKQYKSNDDWNYRFVERGSGLGDSYNNLEIKWFMNKEFRLALLRDWHTKNSPAYVIDFTRYDLQAHEPADPSPEKPAKDWSLINKINQKALRPQDKPVLIDKLEKEDQDLIRKYYPELLK”: “soluble”; “GAASEAEYGKVSKAWTLHADGSQEYRSSMELTLFTHTAMNSTYGESFIVYNPDFQTLKIHSSYTRQKDGTIVKTPDNAFVEVLPRFAADAPAYNQLKEMVVVHTGLELGATIYLDYSIITKPGYYPALDINERLQETSPVKECKVSISVPEGTPLACGLYGSPVKAVEESHDGIKEVHWTLRNIPASSREAFQPKNREASPHLVASTYPSGKAALATLDKRLKESQGYESKTFAQFLTDKSGNEQEKVNIIRDHILNNLSTCPIPMAMTGYTVRDIDTVLRSAYGTPLEIAQLLNVMLNAAGIPSEVLAVYPGHLDTDACGLAAIQTLAVKATVDGKDQYLSASPLTNRGGLDKVVSLSGTSIEIETTPIQIKESRSVAISADQAKDGFAICVLPAISAGIDSWGMSALNSKRSNLFELPSLIREEVTYTVTPAEGMKLQTSTQEQVISKPFGKVTRTITPRGNTIEVVRTIELNKQQFTPAEYSDVRSLIHEWTNPDNRVLLFSL”: “soluble”.
Turning to “GAGTSTPTTGNQNMSGNSGSIVQNFYMQQYQNSIDADLGDNVISPEGQGSNTSSSTSSSQSSGLGGWFSSLLNLGTKLLADKKTEETTNIEDRIETTVVGVTIINSQGSVGTTYCYSKPDGRPPSTVSDPVTRLGPTLSRHYTFKVGEWPHSQSHGHAWICPLPGDKLKKMGSFHEVVKAHHLVKNGWDVVVQVNASFAHSGALCVAAVPEYEHTHEKALKWSELEEPAYTYQQLSVFPHQLLNLRTNSSVHLVMPYIGPGPTTNSALHNPWTIVVLILSELTGPGQTVPVTMSVAPIDAMVNGPLPNPEAPIRVVSVPESDSFMSSVPDNSTPLYPKVVVPPRQVPGRFTNFIDVAKQTYSFCSISGKPYFEVTNTSGDEPLFQMDVSLSAAELHGTYVASLSSFFAQYRGSLNFNFIFTGAAATKAKFLVAFVPPHSAAPKTRDEAMACIHAVWDVGLNSAFSFNVPYSSPADFMAVYSAEATVVNVSGWLQVYALTALTSTDIAVNSKGRVLVAVSAGPDFSLRHPVDLPDKQVTNVGEDGEPGETEPRYALSPVDMHVHTDVSFLLDRFFDVETLELSNLTGSPNTHVLNPFGSTAQLAWARLLNTCTYFFSDLELSIQFKFTTTPSSVGEGFVWVKWFPVGAPTKTTDAWQLEGGGNSVRIQQLAVAGMSPTVVFKIAGSRSQACGFSVPYTSMWRVVPVFYNGWGAPTKEKATYNWLPGAHFGSILLTSDAHDKGGCYLRYRFPRASMYCPRPIAPAFTRPADKTRHKFPTNINKQCTNYSLLKLAGDVESNPG”, the “soluble on expression in E. coli” value is “soluble”.
On to “GAKDSTVQTSISVENVLERAGDSTPFSVALESIDAMKTIEEITIAGSGKASFSPLTFTTVGQYTYRVYQKPSQNKDYQADTTVFDVLVYVTYDEDGTLVAKVISRRAGDEEKSAITFKPKRLVKPIPPRQPDFPKTPLPLA”, for which the “soluble on expression in E. coli” value is recorded as “soluble”.
On to “GAMAPATVNVEVLQDKLDHPWALAFLPDNHGMLITLRGGELRHWQAGKGLSAPLSGVPDVWAHGQGGLLDVVLAPDFAQSRRIWLSYSEVGDDGKAGTAVGYGRLSDDLSKVTDFRTVFRQMPKLSTGNHFGGRLVFDGKGYLFIALGENNQRPTAQDLDKLQGKLVRLTDQGEIPDDNPFIKESGVRAEIWSYGIRNPQGMAMNPWSNALWLNEHGPRGGDEINIPQKGKNYGWPLATWGINYSGFKIPEAKGEIVAGTEQPVFYWKDSPAVSGMAFYNSDKFPQWQQKLFIGALKDKDVIVMSVNGDKVTEDGRILTDRGQRIRDVRTGPDGYLYVLTDESSGELLKVSPR”, for which the “soluble on expression in E. coli” value is reported as “soluble”.
On to “GAMDMLGTSFNNFGISLSHKRYFSGKVDEIIRCTMGKRIVKISSTKINTSILSSVSEQIGENITDWKNDEKKVYVSRVVNQCIDKFCAEHSRKIGDNLRKQIFKQVEKDYRISLDINAAQSSINHLVSGSSYFKKKMDELCEGMNRSVKNDTTSNVANLISDQFFEKNVQYIDLKKLRGNMSDYITNLESPF”, for which the “soluble on expression in E. coli” value is on record as “soluble”.

The record behind these values is the DeepSol protein solubility set.
